# Assay results from patent publication CN113880948A.
# Target: CA724抗原 (CA724)
# Test: biolayer interferometry type kinetics, antibody captured on AMQ biosensor, antigen in solution (diluted 10-fold)
binder,measurement,value
"抗CA724重组抗体 (recombinant anti-CA724 antibody made in Example 1, expressed in Expi293F cells) (antibody, mouse IgG1, kappa, V domains shown) VH: QVQLQQSDAELVKPGASVKISCKASGYTFTDHAIHWAKQKPEQGLEWIGYISPGNDDIKYNEKFKGKATLTADKSSSTAYMQLNSLTSEDSAVYFCKRSYYGHWGQGTTLTVSS VL: DIQMTQSPASLSVSVGETVTITCRASENIYSNLAWYQQKQGKSPQLLVYAATNLADGVPSRFSGSGSGTQYSLKINSLQSEDFGSYYCQHFWGTPYTFGGGTRLEIKG",Kd,18 nM
same,koff,0.00109 s⁻¹
same,kon,60700 M⁻¹ s⁻¹
"抗CA724单克隆抗体 (anti-CA724 monoclonal antibody purified from the hybridoma of Example 1) (antibody, V domains shown) VH: QVQLQQSDAELVKPGASVKISCKASGYTFTDHAIHWAKQKPEQGLEWIGYISPGNDDIKYNEKFKGKATLTADKSSSTAYMQLNSLTSEDSAVYFCKRSYYGHWGQGTTLTVSS VL: DIQMTQSPASLSVSVGETVTITCRASENIYSNLAWYQQKQGKSPQLLVYAATNLADGVPSRFSGSGSGTQYSLKINSLQSEDFGSYYCQHFWGTPYTFGGGTRLEIK",Kd,16.4 nM
same,koff,0.000897 s⁻¹
same,kon,54700 M⁻¹ s⁻¹
